# Laboratory results: the Immune Epitope Database (IEDB)
# Target: HLA-A*68:02
# Assay: IEDB peptide-MHC binding, cellular MHC/competitive/fluorescence; ≥ and ≤ were set here for values at or beyond the usual limits of such assays
# Conditions: source organism: Hepacivirus hominis
row,Sequence,IC50 [µM]
1,RLHGLEAFSL,18.5
2,RLIVYPDLGV,6.68
3,RLLDLSSWFT,11.1
4,RLVPGATYAL,45.8
5,TLLGCWSFVL,26.6
6,VLAGYGAGI,14.7
7,VLQAGITRV,35.6
8,VLWTVFHGA,34.8
9,VMWKCLIRL,7.6
10,WMMLLIAQA,15.8

# Same assay, conditions: source organism: Influenza A virus
row,Sequence,IC50 [µM]
1,RLIQNSITI,≥ 70
2,YLIRALTL,9.52

# Same assay, conditions: source organism: SARS-CoV1
row,Sequence,IC50 [µM]
1,RILGAGCFV,7.01
2,SLVTSFLLM,50.1
3,SQMETDFLEL,20.1
4,TLLLWISVKV,15.7
5,VLTHGLASV,5.42
6,VMFNGVTFST,13.7
7,YALCTLLHL,5.62
8,YLLGLSAIM,12.1

# Same assay, conditions: source organism: Vaccinia virus WR
row,Sequence,IC50 [µM]
1,NLLEQLIENI,24.7
2,PTILATLNTL,9.74
3,PTWLGAAITL,7.41
4,PVLEKKVCAI,39.7
5,QIGGEAIFLI,≥ 70
6,QLLKILDNL,21.7
7,QLVKDESIQL,7.94
8,QVLQQNNSFI,9.96
9,RALKAYFTA,11.4
10,RIKSVLDII,14.5
11,RLFTRCAVI,6.64
12,RMPTDMLKL,≥ 70
13,SALMTLDDL,6.94
14,SALMTLDDLA,19.1
15,SIKMIYDLNA,5.81
16,SILSLETVKM,11.1
17,SINITPDDGL,5.89
18,SINNQLMYDI,6.46
19,SLDQTHIKTI,7.58
20,SLGKSPLPSL,12.8
21,SLIYYQNEVT,7.2
22,SLTQVKELGI,7.15
23,SLVKESMASL,7.96
24,SLVSKHWELT,16.3
25,SLVYGIRCV,51.4

row,Sequence,IC50 [µM]
1,SMMVILPDKI,7.29
2,SMSQELAEL,42.9
3,SMYVIPDEL,7.09
4,TILATLNTL,18.5
5,TLFGRGVIDT,5.73
6,TLVPVLEKKV,32
7,VIPDELIDV,52.2
8,VLALYSPPLI,14.4
9,VLEKKVCAIT,≥ 70
10,VLLPFYETL,24.3
11,VLTSVDIETA,11.4
12,VMHINSPFKV,6.27
13,VMPEKRNVV,6.59
14,VQFSILNNPV,39.7
15,VTYNIKPVIV,8.34
16,WIKDIMTST,9.48
17,WLKDSAIMVA,10.1
18,YIEDELRRAA,24.8
19,YISRDELWA,52.7
20,YLGHSAGFT,8.45
21,YLGHSAGFTA,8.21
22,YLLGDSDSVA,10.7
23,YLLMHLVSL,7.75
24,YLPEVISTIA,7.13
25,YLSDSDNIKI,7.78

# Target: HLA-A*02:01
# Assay: IEDB peptide-MHC binding, purified MHC/competitive/radioactivity; ≥ and ≤ were set here for values at or beyond the usual limits of such assays
# Conditions: source organism: Hepacivirus hominis
row,Sequence,IC50 [µM]
1,RLHGLEAFSL,0.224
2,RLIVYPDLGV,0.043
3,RLLDLSSWFT,0.02
4,RLVPGATYAL,0.15
5,TLLGCWSFVL,0.017
6,VLAGYGAGI,0.408
7,VLQAGITRV,0.056
8,VLWTVFHGA,0.1
9,VMWKCLIRL,0.053
10,WMMLLIAQA,0.075

# Same assay, conditions: source organism: Influenza A virus
row,Sequence,IC50 [µM]
1,RLIQNSITI,0.084
2,YLIRALTL,0.607

# Same assay, conditions: source organism: SARS-CoV1
row,Sequence,IC50 [µM]
1,RILGAGCFV,0.02
2,SLVTSFLLM,0.271
3,SQMETDFLEL,0.092
4,TLLLWISVKV,0.253
5,VLTHGLASV,0.0037
